Molecular target: the molecule itself
Test: cryo-EM structure; single-particle analysis of KR2 rhodopsin in 50 mM Tris-HCl pH 8.0, 0.1 M NaCl, 0.03% DDM; grids made with EasyGrid at 4 °C; non-symmetrised ab initio model, then refinement with imposed C5 symmetry

B1: KR2 rhodopsin (NaR gene from Krokinobacter eikastus) (natural protein)
chain: MTQELGNANFENFIGATEGFSEIAYQFTSHILTLGYAVMLAGLLYFILTIKNVDKKFQMSNILSAVVMVSAFLLLYAQAQNWTSSFTFNEEVGRYFLDPSGDLFNNGYRYLNWLIDVPMLLFQILFVVSLTTSKFSSVRNQFWFSGAMMIITGYIGQFYEVSNLTAFLVWGAISSAFFFHILWVMKKVINEGKEGISPAGQKILSNIWILFLISWTLYPGAYLMPYLTGVDGFLYSEDGVMARQLVYTIADVSSKVIYGVLLGNLAITLSKNKELVEANS
notes: KR2 rhodopsin, NaR gene from Krokinobacter eikastus, codon-optimised for E. coli; also called KR2 bacterial rhodopsin; source: E. coli C41, pET15b, purified in DDM (Ni-NTA, Superdex 200 Increase)
Q: B1 was tested. Which “stoichiometry N” value did it give?
A: 5
